Test [1] has as its target Cas7 (V. cholerae Type I-F variant CRISPR-Cas system) (V. cholerae). Description: cryo-EM structure.
The target in test [2] is TniQ (transposition protein of the Vibrio cholerae Tn6677 transposon) (V. cholerae). Description: cryo-EM structure.

In the case of “Cas7 (V. cholerae Type I-F variant CRISPR-Cas system) (natural protein)”, the stoichiometry N (commonly a count of units in the complex or per binding partner) in test [1] is 6.

In test [2], “TniQ (transposition protein of the Vibrio cholerae Tn6677 transposon) (natural protein)” gave a stoichiometry N of 2.

(Values after doi:10.1101/706143.)
